This note sets out measurements from US20220332804A1 (CSL INNOVATION, published 2022).

Test in all cases: SPR, antibody captured, C2 as analyte;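 note: biacore at 37 °C, anti-C2 mAbs held by immobilised goat anti-human IgG, C2 alanine or serine mutants injected, double-referenced sensorgrams fitted to a 1:1 kinetic or steady-state model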
In general terms: In SPR one partner is held on a chip, and binding of the other changes the refractive index at the surface.

One experiment has as its target T1, human C2 R688A (human, UniProt P06681 21-752).
T1 sequence: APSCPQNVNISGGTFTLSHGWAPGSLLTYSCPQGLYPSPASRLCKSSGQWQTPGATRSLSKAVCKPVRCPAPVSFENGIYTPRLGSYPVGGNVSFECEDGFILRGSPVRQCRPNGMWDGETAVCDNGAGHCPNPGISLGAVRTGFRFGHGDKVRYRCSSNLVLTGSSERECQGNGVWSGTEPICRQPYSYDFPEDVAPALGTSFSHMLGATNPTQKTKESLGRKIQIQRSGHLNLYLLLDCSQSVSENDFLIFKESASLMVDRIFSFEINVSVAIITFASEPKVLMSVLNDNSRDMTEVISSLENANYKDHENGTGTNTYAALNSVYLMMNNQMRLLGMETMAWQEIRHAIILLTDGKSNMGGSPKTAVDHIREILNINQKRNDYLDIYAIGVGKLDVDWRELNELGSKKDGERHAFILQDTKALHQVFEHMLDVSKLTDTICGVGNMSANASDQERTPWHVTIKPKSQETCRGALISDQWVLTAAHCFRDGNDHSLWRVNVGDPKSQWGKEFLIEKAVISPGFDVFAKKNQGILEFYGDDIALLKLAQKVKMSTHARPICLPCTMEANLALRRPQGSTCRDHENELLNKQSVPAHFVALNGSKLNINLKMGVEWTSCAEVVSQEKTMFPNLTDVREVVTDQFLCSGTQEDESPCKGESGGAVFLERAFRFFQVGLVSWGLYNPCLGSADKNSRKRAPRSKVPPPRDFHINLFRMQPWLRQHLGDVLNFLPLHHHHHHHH

For the next experiment, the target named is T2, human C2 L439A (human, UniProt P06681 21-752).
T2 sequence: T1 sequence with L419A, A668R

In another experiment the target is T3, human C2 V418A (human, UniProt P06681 21-752).
T3 sequence: T1 sequence with V398A, A668R

The next experiment addresses T4, human C2 V465A (human, UniProt P06681 21-752).
T4 sequence: T1 sequence with V445A, A668R

Changes are numbered by the printed parent chain.

B1: RF16-242 (antibody, human IgG4 S228P, lambda, V domains shown)
VH: EVQLLQSGAEVKKPGESLKISCKGSGYSFTSYWIGWVRQMPGKGLEWMGIIYPGDSDTRYSPSFQGQVTISADKSISTAYLQWSSLKASDTAMYYCARRGHYGDYFDYWGQGTLVTVSS
VL: SYELTQPPSVSVSPGQTARITCSGDALPKKYAYWYHQKSGQAPVLVIYEDRRRPSEIPERFSGSSSGTMATLTITGAQVEDEGVYFCYSRDRAGNQRVFGGGTQLTVLG
notes: pH-dependent anti-C2 antibody from a phage display library
In the case of B1, the Kd (usually a measure of binding affinity in units of concentration) with human C2 R688A was 17.3 nM; with human C2 L439A it was 170 nM; with human C2 V418A it was 6.8 nM; in the experiment with human C2 V465A, 16.3 nM.
